Experimental data taken from patent US20240141072A1 (published 2024).

Experiments:
Assay in all cases: Octet BLI; biotinylated huDLL3-IgG1 fusion on streptavidin tips; single 50 nM trispecific, conditioned medium
[1] = molecular target: T1, anti-DLL3 trispecific protein with DLL3 binding domain 42F10
T1 construct: trispecific, one chain
Experimental: (§1) Using the conditioned medium with known concentrations of the anti-DLL3 trispecific proteins, the relative binding affinities of the anti-DLL3 trispecific proteins toward human DLL3 protein were measured using a method where biotinylated version of human DLL3 protein were expressed as a human IgG1 fusion protein, and the binding affinity measurement was carried out in an Octet instrument with streptavidin tips.

[2] = molecular target: T2, anti-DLL3 trispecific protein with DLL3 binding domain 52B01
T2 construct: trispecific, one chain; also called 52B1
Experimental: as §1

[3] = molecular target: T3, anti-DLL3 trispecific protein with DLL3 binding domain 51E05
T3 construct: trispecific, one chain
Experimental: as §1

[4] = molecular target: T4, anti-DLL3 trispecific protein with DLL3 binding domain 53A04
T4 construct: trispecific, one chain
Experimental: as §1

[5] = molecular target: T5, anti-DLL3 trispecific protein with DLL3 binding domain 42E01
T5 construct: trispecific, one chain
Experimental: as §1

[6] = molecular target: T6, anti-DLL3 trispecific protein with DLL3 binding domain 51G02
T6 construct: trispecific, one chain; also called 51G2
Experimental: as §1

[7] = molecular target: T7, anti-DLL3 trispecific protein with DLL3 binding domain 41D02
T7 construct: trispecific, one chain
Experimental: as §1

[8] = molecular target: T8, anti-DLL3 trispecific protein with DLL3 binding domain 42D05
T8 construct: trispecific, one chain
Experimental: as §1

[9] = molecular target: T9, anti-DLL3 trispecific protein with DLL3 binding domain 51G04
T9 construct: trispecific, one chain
Experimental: as §1

[10] = molecular target: T10, anti-DLL3 trispecific protein with DLL3 binding domain 42A11
T10 construct: trispecific, one chain
Experimental: as §1

[11] = molecular target: T11, anti-DLL3 trispecific protein with DLL3 binding domain 41E02
T11 construct: trispecific, one chain
Experimental: as §1

[12] = molecular target: T12, anti-DLL3 trispecific protein with DLL3 binding domain 54B05
T12 construct: trispecific, one chain
Experimental: as §1

[13] = molecular target: T13, anti-DLL3 trispecific protein with DLL3 binding domain 53B05
T13 construct: trispecific, one chain
Experimental: as §1

[14] = molecular target: T14, anti-DLL3 trispecific protein with DLL3 binding domain 42C10
T14 construct: trispecific, one chain
Experimental: as §1

[15] = molecular target: T15, anti-DLL3 trispecific protein with DLL3 binding domain 51H05
T15 construct: trispecific, one chain; also called 51H5
Experimental: as §1

[16] = molecular target: T16, anti-DLL3 trispecific protein with DLL3 binding domain 41G01
T16 construct: trispecific, one chain
Experimental: as §1

[17] = molecular target: T17, anti-DLL3 trispecific protein with DLL3 binding domain 42B10
T17 construct: trispecific, one chain
Experimental: as §1

[18] = molecular target: T18, anti-DLL3 trispecific protein with DLL3 binding domain 51F04
T18 construct: trispecific, one chain
Experimental: as §1

[19] = molecular target: T19, anti-DLL3 trispecific protein with DLL3 binding domain 42H08
T19 construct: trispecific, one chain
Experimental: as §1

[20] = molecular target: T20, anti-DLL3 trispecific protein with DLL3 binding domain 42B06
T20 construct: trispecific, one chain
Experimental: as §1

[21] = molecular target: T21, anti-DLL3 trispecific protein with DLL3 binding domain 42D08
T21 construct: trispecific, one chain
Experimental: as §1

[22] = molecular target: T22, anti-DLL3 trispecific protein with DLL3 binding domain 51G10
T22 construct: trispecific, one chain
Experimental: as §1

[23] = molecular target: T23, anti-DLL3 trispecific protein with DLL3 binding domain 42H11
T23 construct: trispecific, one chain
Experimental: as §1

[24] = molecular target: T24, anti-DLL3 trispecific protein with DLL3 binding domain 51F02
T24 construct: trispecific, one chain
Experimental: as §1

[25] = molecular target: T25, anti-DLL3 trispecific protein with DLL3 binding domain 51D03
T25 construct: trispecific, one chain
Experimental: as §1

[26] = molecular target: T26, anti-DLL3 trispecific protein with DLL3 binding domain 42D06
T26 construct: trispecific, one chain
Experimental: as §1

[27] = molecular target: T27, anti-DLL3 trispecific protein with DLL3 binding domain 42C01
T27 construct: trispecific, one chain
Experimental: as §1

[28] = molecular target: T28, anti-DLL3 trispecific protein with DLL3 binding domain 51H04
T28 construct: trispecific, one chain
Experimental: as §1

T3 sequence (chain, as listed by the source): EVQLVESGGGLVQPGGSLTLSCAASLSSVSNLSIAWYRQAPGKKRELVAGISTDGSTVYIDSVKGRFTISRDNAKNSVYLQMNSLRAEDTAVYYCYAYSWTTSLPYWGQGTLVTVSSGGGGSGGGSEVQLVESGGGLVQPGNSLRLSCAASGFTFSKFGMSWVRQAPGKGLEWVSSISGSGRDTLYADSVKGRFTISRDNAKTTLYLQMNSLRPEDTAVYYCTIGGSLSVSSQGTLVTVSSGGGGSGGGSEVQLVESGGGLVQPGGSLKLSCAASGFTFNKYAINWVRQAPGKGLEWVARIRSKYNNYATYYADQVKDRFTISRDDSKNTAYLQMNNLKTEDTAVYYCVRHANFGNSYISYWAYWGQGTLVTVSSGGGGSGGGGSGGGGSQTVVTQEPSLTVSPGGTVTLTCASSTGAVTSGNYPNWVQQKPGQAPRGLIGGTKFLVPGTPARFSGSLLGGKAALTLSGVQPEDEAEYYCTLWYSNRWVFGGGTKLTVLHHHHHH
T5 sequence (chain, as listed by the source): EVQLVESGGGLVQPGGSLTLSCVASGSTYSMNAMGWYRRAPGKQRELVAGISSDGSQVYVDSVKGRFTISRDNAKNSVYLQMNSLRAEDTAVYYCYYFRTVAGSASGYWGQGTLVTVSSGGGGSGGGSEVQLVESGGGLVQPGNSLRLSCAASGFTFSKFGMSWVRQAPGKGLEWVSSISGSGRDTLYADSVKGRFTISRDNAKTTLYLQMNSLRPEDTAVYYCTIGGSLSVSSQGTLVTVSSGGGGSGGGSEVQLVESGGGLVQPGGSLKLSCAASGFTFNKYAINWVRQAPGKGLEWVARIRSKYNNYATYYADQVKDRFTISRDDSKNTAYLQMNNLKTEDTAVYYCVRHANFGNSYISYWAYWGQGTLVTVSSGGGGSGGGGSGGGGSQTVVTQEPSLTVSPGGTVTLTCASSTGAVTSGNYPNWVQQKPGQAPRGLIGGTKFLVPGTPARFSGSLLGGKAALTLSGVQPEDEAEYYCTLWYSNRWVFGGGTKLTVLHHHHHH
T14 sequence (chain, as listed by the source): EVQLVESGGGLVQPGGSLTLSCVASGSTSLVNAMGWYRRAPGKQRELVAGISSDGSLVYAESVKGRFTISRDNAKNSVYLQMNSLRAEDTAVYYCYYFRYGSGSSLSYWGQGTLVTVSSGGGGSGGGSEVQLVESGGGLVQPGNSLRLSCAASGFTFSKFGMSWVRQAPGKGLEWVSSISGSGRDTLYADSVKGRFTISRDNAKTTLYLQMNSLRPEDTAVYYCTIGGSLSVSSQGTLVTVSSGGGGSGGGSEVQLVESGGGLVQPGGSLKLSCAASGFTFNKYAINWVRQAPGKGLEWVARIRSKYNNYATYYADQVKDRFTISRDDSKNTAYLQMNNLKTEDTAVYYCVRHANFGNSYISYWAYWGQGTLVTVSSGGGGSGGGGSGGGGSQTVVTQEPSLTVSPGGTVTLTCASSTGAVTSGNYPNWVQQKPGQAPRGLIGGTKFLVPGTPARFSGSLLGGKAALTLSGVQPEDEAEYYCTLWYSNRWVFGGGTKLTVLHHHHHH
T9 sequence (chain, as listed by the source): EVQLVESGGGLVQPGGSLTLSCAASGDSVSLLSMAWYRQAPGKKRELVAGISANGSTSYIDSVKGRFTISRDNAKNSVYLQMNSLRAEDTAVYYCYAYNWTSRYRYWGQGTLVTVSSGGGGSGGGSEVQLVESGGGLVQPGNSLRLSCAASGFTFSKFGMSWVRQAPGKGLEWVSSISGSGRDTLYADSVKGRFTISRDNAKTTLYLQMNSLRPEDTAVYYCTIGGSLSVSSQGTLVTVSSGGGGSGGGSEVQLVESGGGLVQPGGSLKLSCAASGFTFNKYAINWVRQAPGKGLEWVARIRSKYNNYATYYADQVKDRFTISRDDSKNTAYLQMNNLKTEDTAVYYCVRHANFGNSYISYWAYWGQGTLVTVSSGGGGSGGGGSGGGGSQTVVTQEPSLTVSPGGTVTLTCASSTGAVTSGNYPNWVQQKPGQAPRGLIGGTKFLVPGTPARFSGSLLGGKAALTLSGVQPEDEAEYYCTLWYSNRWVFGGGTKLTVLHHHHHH
T11 sequence (chain, as listed by the source): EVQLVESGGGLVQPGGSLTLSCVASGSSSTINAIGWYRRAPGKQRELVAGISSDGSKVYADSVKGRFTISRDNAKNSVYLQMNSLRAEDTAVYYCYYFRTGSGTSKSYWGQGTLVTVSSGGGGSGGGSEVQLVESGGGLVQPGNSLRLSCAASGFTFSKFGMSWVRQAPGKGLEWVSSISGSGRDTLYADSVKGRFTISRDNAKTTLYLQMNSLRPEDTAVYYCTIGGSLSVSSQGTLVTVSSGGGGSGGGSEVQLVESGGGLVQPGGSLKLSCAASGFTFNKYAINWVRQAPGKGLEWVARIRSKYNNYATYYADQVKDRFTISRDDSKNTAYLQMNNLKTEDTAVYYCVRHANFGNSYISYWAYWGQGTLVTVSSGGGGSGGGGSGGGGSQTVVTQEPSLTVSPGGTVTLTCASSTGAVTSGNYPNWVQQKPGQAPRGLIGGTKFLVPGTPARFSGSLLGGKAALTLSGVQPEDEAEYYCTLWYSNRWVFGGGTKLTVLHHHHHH
T22 sequence (chain, as listed by the source): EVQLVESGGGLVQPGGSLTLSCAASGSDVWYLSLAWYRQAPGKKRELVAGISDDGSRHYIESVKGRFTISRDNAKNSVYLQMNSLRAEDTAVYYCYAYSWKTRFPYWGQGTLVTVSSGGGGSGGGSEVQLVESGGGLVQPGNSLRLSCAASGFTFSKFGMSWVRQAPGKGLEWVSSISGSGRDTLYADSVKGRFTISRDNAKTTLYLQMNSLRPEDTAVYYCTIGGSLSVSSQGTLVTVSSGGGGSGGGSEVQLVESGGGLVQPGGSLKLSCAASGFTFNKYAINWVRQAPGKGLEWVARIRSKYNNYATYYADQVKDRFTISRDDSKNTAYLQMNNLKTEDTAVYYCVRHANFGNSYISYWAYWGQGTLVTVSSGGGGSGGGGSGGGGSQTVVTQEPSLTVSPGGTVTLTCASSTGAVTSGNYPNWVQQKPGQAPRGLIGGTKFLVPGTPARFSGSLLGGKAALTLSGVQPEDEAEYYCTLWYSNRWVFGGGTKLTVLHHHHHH
T26 sequence (chain, as listed by the source): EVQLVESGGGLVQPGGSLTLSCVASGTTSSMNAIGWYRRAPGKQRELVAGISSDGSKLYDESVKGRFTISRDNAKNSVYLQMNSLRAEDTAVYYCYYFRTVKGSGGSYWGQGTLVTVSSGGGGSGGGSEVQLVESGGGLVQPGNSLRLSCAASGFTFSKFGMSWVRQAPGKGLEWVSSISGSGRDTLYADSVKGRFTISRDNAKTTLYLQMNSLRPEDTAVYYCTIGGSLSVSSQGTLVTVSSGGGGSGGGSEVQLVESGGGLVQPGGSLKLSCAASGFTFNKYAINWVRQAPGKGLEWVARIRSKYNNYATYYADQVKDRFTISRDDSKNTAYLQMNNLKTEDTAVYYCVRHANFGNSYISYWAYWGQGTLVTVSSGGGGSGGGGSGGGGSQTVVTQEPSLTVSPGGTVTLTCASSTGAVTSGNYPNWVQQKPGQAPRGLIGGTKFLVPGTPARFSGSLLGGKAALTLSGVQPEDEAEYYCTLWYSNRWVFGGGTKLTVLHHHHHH
T13 sequence (chain, as listed by the source): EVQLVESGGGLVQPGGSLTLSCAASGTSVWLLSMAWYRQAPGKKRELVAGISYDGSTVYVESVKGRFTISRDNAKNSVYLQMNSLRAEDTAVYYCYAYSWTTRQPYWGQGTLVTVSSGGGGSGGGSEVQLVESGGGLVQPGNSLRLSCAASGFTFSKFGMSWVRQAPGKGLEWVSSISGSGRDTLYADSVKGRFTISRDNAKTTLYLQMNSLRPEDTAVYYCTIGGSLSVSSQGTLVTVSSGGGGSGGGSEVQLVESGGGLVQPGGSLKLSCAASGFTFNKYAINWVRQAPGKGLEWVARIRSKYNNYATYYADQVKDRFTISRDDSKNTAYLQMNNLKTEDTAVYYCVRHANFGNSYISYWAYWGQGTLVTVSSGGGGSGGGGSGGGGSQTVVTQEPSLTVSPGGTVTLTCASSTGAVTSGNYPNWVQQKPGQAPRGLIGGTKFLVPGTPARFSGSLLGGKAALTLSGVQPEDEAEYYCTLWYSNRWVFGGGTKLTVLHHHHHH
T6 sequence (chain, as listed by the source): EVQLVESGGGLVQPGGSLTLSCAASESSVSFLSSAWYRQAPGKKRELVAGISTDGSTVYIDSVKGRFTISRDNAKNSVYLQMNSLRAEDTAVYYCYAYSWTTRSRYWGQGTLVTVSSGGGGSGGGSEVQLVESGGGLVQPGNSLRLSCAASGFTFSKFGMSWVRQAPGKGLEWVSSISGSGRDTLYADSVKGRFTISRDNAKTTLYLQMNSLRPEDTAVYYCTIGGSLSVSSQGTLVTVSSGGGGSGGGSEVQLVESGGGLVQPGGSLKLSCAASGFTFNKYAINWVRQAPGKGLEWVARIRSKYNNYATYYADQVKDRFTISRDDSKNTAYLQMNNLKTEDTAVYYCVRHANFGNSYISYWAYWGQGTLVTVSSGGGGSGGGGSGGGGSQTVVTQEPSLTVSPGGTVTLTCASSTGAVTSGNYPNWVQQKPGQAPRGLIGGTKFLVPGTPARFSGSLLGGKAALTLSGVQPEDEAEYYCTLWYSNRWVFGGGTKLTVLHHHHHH

B1: biotinylated human DLL3 protein expressed as a human IgG1 fusion protein (Fc fusion, not shown: a dimerising Fc or GST)
chain: AGVFELQIHSFGPGPGPGAPRSPCSARLPCRLFFRVCLKPGLSEEAAESPCALGAALSARGPVYTEQPGAPAPDLPLPDGLLQVPFRDAWPGTFSFIIETWREELGDQIGGPAWSLLARVAGRRRLAAGGPWARDIQRAGAWELRFSYRARCEPPAVGTACTRLCRPRSAPSRCGPGLRPCAPLEDECEAPLVCRAGCSPEHGFCEQPGECRCLEGWTGPLCTVPVSTSSCLSPRGPSSATTGCLVPGPGPCDGNPCANGGSCSETPRSFECTCPRGFYGLRCEVSGVTCADGPCFNGGLCVGGADPDSAYICHCPPGFQGSNCEKRVDRCSLQPCRNGGLCLDLGHALRCRCRAGFAGPRCEHDLDDCAGRACANGGTCVEGGGAHRCSCALGFGGRDCRERADPCAARPCAHGGRCYAHFSGLVCACAPGYMGARCEFPVHPDGASALPAAPPGLRPGDPQRYL
modifications: biotinylated
Q: B1 was tested. Which Kd [1] did it give?
A: The Kd was 17 nM.

Q: What about the Kd [2] of the same binder?
A: Its Kd is 0.61 nM.

Q: And the Kd [3]?
A: The Kd was 0.97 nM.

Q: What about the Kd [4] of the same binder?
A: Its Kd is 0.42 nM.

Q: And the Kd [5]?
A: Its Kd is 4 nM.

Q: And the Kd [6]?
A: Its Kd is 1.3 nM.

Q: What about the Kd [7] of the same binder?
A: Its Kd is 2.7 nM.

Q: And the Kd [8]?
A: Its Kd is 2.7 nM.

Q: What about the Kd [9] of the same binder?
A: Its Kd is 21 nM.

Q: What about the Kd [10] of the same binder?
A: The Kd was 2 nM.

Q: And the Kd [11]?
A: Its Kd is 3.4 nM.

Q: And the Kd [12]?
A: The Kd was 0.76 nM.

Q: What about the Kd [13] of the same binder?
A: The Kd was 0.6 nM.

Q: And the Kd [14]?
A: The Kd was 3.2 nM.

Q: What about the Kd [15] of the same binder?
A: Its Kd is 0.67 nM.

Q: And the Kd [16]?
A: The Kd was 4 nM.

Q: And the Kd [17]?
A: The Kd was 1.3 nM.

Q: And the Kd [18]?
A: Its Kd is 6.7 nM.

Q: What about the Kd [19] of the same binder?
A: The Kd was 2.1 nM.

Q: What about the Kd [20] of the same binder?
A: Its Kd is 3.2 nM.

Q: And the Kd [21]?
A: Its Kd is 1.3 nM.

Q: And the Kd [22]?
A: Its Kd is 0.6 nM.

Q: And the Kd [23]?
A: The Kd was 3.1 nM.

Q: What about the Kd [24] of the same binder?
A: The Kd was 2.4 nM.

Q: What about the Kd [25] of the same binder?
A: Its Kd is 3.3 nM.

Q: And the Kd [26]?
A: Its Kd is 1.5 nM.

Q: What about the Kd [27] of the same binder?
A: The Kd was 3.6 nM.

Q: And the Kd [28]?
A: The Kd was 1 nM.
